{
  "source": "patent US20040101829A1",
  "about": "(UNIVERSITY OF IOWA RESEARCH FOUNDATION, published 2004)",
  "binders": {"B1": {"name": "murine CD81 on parental (control) mouse 3T3 cells (receptor, UniProt P35762 1-236, looked up)", "chain": "MGVEGCTKCIKYLLFVFNFVFWLAGGVILGVALWLRHDPQTTSLLYLELGNKPAPNTFYVGIYILIAVGAVMMFVGFLGCYGAIQESQCLLGTFFTCLVILFACEVAAGIWGFVNKDQIAKDVKQFYDQALQQAVMDDDANNAKAVVKTFHETLNCCGSNALTTLTTTILRNSLCPSGGNILTPLLQQDCHQKIDELFSGKLYLIGIAAIVVAVIMIFEMILSMVLCCGIRNSSVY", "notes": "whole, on cells; also called control 3T3 cells"}, "B2": {"name": "Purified recombinant HCV envelope glycoprotein E2 (Ala 384-Lys 715) (other)", "chain": "ETHVTGGSAGHTVSGFVSLLAPGAKQNVQLINTNGSWHLNSTALNCNDSLNTGWLAGLFYHHKFNSSGCPERLASCRPLTDFDQGWGPISYANGSGPDQRPYCWHYPPKPCGIVPAKSVCGPVYCFTPSPVVVGTTDRSGAPTYSWGENDTDVFVLNNTRPPLGNWFGCTWMNSTGFTKVCGAPPCVIGGAGNNTLHCPTDCFRKHPDATYSRCGSGPWITPRCLVDYPYRLWHYPCTINYTIFKIRMYVGGVEHRLEAACNWTRGERCDLEDRDRSELSPLLLTTTQWQVLPCSFTTLPALSTGLIHLHQNIVDVQYLYGVGSSIASWAIK", "notes": "also called HCV E2; HCV-E2"}, "B3": {"name": "human low density lipoprotein receptor (LDLr) on MOLT-4 cells (receptor)", "chain": "not shown", "notes": "whole, on cells; also called human LDLr; hLDLr"}},
  "key": {"[1]": {"biological_target": "B2", "experiment": "flow cytometry, recombinant E2 on mouse 3T3 cells expressing only murine CD81"}, "[2]": {"biological_target": "T1, apoprotein B (apoB100), delipidized protein (human, UniProt P04114 28-4563)", "T1 construct": "also called apo-B delipidized protein; apoprotein apoB100", "T1 sequence (P04114 28-4563 limits assumed)": "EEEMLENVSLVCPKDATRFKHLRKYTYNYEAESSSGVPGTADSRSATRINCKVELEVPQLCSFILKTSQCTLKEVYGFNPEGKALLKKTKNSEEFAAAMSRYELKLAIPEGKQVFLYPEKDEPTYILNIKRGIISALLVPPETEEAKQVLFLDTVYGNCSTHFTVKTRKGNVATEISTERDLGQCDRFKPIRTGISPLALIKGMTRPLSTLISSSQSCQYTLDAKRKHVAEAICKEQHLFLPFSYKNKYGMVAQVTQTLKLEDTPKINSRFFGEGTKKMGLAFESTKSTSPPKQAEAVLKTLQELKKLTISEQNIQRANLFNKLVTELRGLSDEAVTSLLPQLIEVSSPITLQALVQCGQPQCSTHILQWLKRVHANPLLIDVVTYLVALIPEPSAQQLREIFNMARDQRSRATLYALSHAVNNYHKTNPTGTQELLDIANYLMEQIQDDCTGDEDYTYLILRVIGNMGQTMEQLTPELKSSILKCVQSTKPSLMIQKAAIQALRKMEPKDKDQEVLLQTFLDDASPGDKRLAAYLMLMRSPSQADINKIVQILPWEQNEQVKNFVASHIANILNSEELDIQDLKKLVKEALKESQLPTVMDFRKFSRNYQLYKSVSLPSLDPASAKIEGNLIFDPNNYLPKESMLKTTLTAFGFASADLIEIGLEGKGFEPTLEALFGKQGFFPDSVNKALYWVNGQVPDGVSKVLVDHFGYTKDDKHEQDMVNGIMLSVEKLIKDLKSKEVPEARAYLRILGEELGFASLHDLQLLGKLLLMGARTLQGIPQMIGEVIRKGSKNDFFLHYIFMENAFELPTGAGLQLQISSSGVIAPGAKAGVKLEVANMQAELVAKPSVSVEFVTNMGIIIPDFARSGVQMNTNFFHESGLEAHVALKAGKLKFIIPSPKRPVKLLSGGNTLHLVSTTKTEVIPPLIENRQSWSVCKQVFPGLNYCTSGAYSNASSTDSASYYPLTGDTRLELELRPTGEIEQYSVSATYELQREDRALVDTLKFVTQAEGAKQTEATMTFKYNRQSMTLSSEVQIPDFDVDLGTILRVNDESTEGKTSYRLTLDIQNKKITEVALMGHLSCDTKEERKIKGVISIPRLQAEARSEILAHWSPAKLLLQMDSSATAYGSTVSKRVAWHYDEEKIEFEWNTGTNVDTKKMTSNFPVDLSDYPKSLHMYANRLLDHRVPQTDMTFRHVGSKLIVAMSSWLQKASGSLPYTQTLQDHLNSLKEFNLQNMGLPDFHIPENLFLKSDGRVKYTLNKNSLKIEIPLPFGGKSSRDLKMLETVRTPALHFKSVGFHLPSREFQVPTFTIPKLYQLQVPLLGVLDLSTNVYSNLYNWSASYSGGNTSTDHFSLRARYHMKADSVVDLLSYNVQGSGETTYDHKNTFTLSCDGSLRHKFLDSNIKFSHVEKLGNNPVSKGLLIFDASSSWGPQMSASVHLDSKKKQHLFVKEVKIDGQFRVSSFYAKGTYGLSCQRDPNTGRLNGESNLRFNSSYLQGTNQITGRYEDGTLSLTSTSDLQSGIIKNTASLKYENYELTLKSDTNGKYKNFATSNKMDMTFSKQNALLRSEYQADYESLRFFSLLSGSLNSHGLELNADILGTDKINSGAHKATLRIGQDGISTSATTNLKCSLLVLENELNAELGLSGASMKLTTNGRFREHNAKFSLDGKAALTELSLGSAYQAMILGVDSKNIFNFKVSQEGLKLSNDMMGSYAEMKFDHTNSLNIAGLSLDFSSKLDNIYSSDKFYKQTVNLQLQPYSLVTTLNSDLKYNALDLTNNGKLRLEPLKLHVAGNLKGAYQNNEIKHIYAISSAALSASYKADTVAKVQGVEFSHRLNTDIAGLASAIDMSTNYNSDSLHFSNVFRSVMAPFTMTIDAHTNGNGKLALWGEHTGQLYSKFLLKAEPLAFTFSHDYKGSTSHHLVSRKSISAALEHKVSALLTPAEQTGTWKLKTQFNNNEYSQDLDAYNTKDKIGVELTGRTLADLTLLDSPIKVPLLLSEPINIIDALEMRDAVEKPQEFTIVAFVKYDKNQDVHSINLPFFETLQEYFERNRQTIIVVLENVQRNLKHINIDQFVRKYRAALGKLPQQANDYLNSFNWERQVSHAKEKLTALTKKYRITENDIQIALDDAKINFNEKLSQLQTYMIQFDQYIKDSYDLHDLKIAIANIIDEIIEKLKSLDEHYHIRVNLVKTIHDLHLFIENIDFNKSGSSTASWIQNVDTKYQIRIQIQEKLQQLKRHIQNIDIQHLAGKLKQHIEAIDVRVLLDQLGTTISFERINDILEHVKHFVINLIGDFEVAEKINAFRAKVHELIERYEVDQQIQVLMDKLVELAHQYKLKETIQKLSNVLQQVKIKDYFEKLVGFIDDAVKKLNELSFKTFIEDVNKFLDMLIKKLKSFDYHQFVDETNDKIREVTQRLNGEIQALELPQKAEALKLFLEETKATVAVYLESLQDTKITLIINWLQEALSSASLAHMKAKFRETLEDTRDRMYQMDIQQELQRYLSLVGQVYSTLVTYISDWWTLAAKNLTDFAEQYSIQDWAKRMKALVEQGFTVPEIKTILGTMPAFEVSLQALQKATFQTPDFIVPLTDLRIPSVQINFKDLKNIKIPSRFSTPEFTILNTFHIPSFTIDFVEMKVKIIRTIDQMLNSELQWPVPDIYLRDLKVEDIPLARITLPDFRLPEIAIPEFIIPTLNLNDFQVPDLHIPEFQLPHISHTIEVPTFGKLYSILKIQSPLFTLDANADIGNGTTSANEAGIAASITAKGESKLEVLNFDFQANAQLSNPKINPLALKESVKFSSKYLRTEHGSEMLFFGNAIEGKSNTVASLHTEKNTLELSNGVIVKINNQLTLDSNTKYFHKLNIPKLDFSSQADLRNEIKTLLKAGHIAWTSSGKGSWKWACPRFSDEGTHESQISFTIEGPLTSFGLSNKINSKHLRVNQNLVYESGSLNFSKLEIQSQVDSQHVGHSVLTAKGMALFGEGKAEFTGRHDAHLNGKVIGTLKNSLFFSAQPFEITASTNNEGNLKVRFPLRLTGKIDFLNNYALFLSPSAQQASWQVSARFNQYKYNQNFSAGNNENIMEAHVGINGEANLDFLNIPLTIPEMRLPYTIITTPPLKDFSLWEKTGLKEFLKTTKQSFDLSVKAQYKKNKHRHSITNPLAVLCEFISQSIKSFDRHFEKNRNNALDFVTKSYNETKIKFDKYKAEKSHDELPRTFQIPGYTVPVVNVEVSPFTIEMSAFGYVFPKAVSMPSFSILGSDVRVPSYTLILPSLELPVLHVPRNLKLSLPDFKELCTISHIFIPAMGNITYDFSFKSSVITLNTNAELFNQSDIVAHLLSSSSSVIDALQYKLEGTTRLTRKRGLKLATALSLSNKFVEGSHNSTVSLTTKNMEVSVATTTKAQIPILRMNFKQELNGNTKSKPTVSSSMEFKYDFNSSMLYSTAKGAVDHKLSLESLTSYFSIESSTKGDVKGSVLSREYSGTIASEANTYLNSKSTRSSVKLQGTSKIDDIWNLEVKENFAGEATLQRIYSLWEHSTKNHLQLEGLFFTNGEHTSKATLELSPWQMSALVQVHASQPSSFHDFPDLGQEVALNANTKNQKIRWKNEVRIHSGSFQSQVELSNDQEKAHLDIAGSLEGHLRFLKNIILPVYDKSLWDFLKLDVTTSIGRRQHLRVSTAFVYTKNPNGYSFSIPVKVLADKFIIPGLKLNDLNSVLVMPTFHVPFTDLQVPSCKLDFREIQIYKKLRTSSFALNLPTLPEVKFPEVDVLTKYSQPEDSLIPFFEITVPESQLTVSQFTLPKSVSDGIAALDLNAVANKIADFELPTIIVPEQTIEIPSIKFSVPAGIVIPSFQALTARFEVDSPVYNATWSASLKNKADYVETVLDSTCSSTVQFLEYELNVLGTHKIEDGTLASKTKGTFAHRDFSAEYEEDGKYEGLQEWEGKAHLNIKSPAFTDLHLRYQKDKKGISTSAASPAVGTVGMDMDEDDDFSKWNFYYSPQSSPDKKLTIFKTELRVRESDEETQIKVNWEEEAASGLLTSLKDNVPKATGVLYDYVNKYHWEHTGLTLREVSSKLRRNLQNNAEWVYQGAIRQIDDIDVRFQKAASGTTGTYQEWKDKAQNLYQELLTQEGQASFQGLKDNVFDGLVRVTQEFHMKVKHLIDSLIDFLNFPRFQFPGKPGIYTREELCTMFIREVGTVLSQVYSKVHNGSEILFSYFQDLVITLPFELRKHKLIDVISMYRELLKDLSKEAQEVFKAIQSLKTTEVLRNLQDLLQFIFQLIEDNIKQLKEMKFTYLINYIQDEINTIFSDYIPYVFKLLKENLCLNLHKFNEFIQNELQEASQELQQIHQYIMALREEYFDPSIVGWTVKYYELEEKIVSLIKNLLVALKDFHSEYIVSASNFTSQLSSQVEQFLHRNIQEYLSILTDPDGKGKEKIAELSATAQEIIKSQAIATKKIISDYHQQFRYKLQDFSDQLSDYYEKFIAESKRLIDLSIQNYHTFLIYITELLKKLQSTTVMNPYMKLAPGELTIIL", "experiment": "flow cytometry on MOLT-4 cells incubated with E2, apo-B delipidized protein and E2/apoB; cell-bound E2 detected with antibody 108"}, "[3]": {"biological_target": "T1, apoprotein B (apoB100), delipidized …", "experiment": "flow cytometry on MOLT-4 cells, cell-bound apoB detected with goat polyclonal antibody"}},
  "data": [
    {"binder": "B1", "values": [
      {"measurement": "binding result", "setting": "[1]", "value": "no binding"}
    ]},
    {"binder": "B2", "values": [
      {"measurement": "binding result", "setting": "[2]", "value": "no binding"}
    ]},
    {"binder": "B3", "values": [
      {"measurement": "binding result", "setting": "[3]", "value": "binds"}
    ]}
  ]
}
